Positions of bridges follow the written chain, without caps; N, C: chain ends. No end group written: not given here. *: point of attachment. Biotin = O=C1N[C@H]2[C@H](CS[C@H]2CCCCC(=O)*)N1
Assays:
Assay type in all cases: cell-based, rat
[1] = tested on: co-cultures of dorsal root ganglion (DRG) neurons and oligodendrocytes; experiment: In vitro myelination in co-cultures of DRG neurons and oligodendrocytes; settings: for expression of MBP by western blot: 4-week-old treated cocultures, 10 μg/ml for Fc fusions; for number of myelinating MBP+ cells compared with controls: cocultures infected with lentivirus for two weeks, FIG. 10E; for MBP in cultures by western blot: cocultures infected with lentivirus, FIG. 10F
Description: The role of Sp35 in myelination was examined in vitro by treating co-cultures of dorsal root ganglion (DRG) neurons and oligodendrocytes with Sp35-Fc and testing for myelination by immunohistochemistry and electron microscopy. For these studies, it was necessary to first generate primary cultures of DRG neurons and of oligodendrocytes.
Female Long Evans rat E14-E17 embryonic dorsal root ganglia were cultured as described by Plant et al., J. Neurosci. 22:6083-91 (2002). Dissected DRGs were plated on poly-L-lysine-coated cover slips (100 μg/ml) for 2 weeks in the presence of fluorodeoxyuridine for days 2-6 and days 8-11 in NLA medium containing 1× B27, 100 ng/ml NGF (Invitrogen).
A2B5^+ oligodendrocytes were prepared as described in Example 1, and were harvested by trypsinization.
For coculture studies, A2B5^+ oligodendrocytes were added to DRG neuron drop cultures in the presence or absence of 10 μg/ml Sp35-Fc. The culture medium (Neurobasal medium supplemented with B27 and 100 ng/ml NGF) was changed, and fresh Sp35-Fc was added to the cells every 3 d. To identify changes in myelination, 2-week-old cultures were stained by immunohistochemical staining (“IHC”) for neurofilaments with anti-βIII-tubulin antibody to identify axons, or anti-MBP antibody to identify oligodendrocytes., and 4-week-old cultures were subjected to SDS-PAGE followed by western blot analyses to quantify the MBP. In selected examples, cells were fixed for electron microscopy studies by adding 2.5% gluteraldehyde directly onto the cover slips. Myelinated axons in the 2-week-old cultures were quantified by counting the number of myelinated internode bundles that were derived from single MBP^+ oligodendrocytes. Samples were analyzed in duplicate. Error bars denote individual determinations. P values in all studies were determined using a one-way analysis of variance.
Several peptides containing portions of the Ig domain of Sp35 were examined in vitro, by treating co-cultures of dorsal root ganglion (DRG) neurons and oligodendrocytes with Sp35 Ig peptides and testing for myelination as described in Example 5.
For co-culture studies, A2B5^+ oligodendrocytes were added to DRG neuron drop cultures in the presence or absence of 10 μg/ml Sp35-Ig-Fc (Sp35 amino acids 417-493 fused to Fc). The culture medium (Neurobasal medium supplemented with B27 and 100 ng/ml NGF) was changed, and fresh Sp35-Ig-Fc was added to the cells every 3 d. To identify changes in myelination, 2-week-old cultures were stained by immunohistochemical staining (“IHC”) for neurofilaments with anti-βIII-tubulin antibody to identify axons, or anti-MBP antibody to identify oligodendrocytes and 4-week-old cultures were subjected to SDS-PAGE followed by western blot analyses to quantify the MBP.
We performed experiments to address the relative contributions to the myelination process of Sp35 in DRG neurons as compared to oligodendrocytes. We infected DRG neurons, oligodendrocytes and co-cultures (prepared as described in Example 5) with the FL-Sp35 and DN-Sp35 lentiviral vectors described in Example 1 and performed immunohistochemical straining for myelinated MBP cells after two weeks. A 2-fold increase in MBP levels in co-cultures where both cells express DN-Sp35 and a 2-fold decrease in MBP levels in co-cultures where both cells express FL-Sp35 was observed (FIG. 10G).

Oligodendrocytes = experiment: Oligodendrocyte differentiation after infection with FL-Sp35 or DN-Sp35 lentivirus; settings: lentivirus at 2 MOI per cell
Description: Enriched populations of oligodendrocytes were grown from female Long Evans P2 rats as described by Conn, Meth. Neurosci. 2:1-4 (Academic Press; 1990) with modifications as follows. Briefly, the forebrain was dissected and placed in Hank's buffered salt solution (HBSS; Invitrogen). The tissue was cut into 1-mm fragments and was incubated at 37° C. for 15 min in 0.01% trypsin and 10 μg/ml DNase. Dissociated cells were plated on poly-L-lysine-coated T75 tissue culture flasks and were grown at 37° C. for 10 d in DMEM medium with 20% fetal calf serum (Invitrogen). Oligodendrocyte precursors (A2B5+) were collected by shaking the flask overnight at 200 rpm at 37° C., resulting in a 95% pure population. Cultures were maintained in high-glucose Dulbecco's modified Eagle's medium (DMEM) with FGF/PDGF (10 ng/ml; Peprotech) for 1 week. Removal of FGF/PDGF allowed A2B5^+ cells to differentiate into O4^+ premyelinating oligodendrocytes after 3-7 d, and to differentiate into O4^+ and MBP^+ mature oligodendrocytes after 7-10 d. These differentiation states are readily apparent from changes in morphology: A2B5^+ cells are bipolar in shape, O4^+ premyelinating oligodendrocytes have longer and more branched processes and MBP^+ mature oligodendrocytes contain myelin sheet structures between processes.
We constructed lentiviral vectors that express wild-type and a dominant-negative form of Sp35. […]

Fyn kinase = experiment: Fyn expression and phosphorylation in oligodendrocytes by western blotting; settings: lentivirus-infected oligodendrocytes, FIG. 9B
Description: The activity of RhoA GTPase is regulated by Fyn kinase See Liang, X, et al., J. Neurosci. 24:7140-7149 (2004). Increased Fyn expression and phosphorylation correlate with oligodendrocyte differentiation. Id. See also Osterhout, D. J., et al., J. Cell Biol. 145:1209-1218 (1999). To test if Sp35 antagonists affect Fyn function, Fyn expression and phosphorylation were measured directly by western blotting.

[2] = co-cultures where both cell types express the construct, two weeks, FIG. 10G

Molecule: Ac-CLSPRKHC (SEQ ID NO:66) (Ac-CLSPRKHC-NH2; disulfide 1-8 (inferred); listed as Homo sapiens) [cyclized LSPRKH peptide with terminal cysteines, acetyl at N-terminus and NH2 at C-terminus]
- expression of MBP by western blot [1]: increased expression of MBP

Molecule: Biotin-GSGCLSPEKVC (SEQ ID NO:65; cysteine pairing not given here) [reference compound]
- expression of MBP by western blot [1]: no increase in MBP

Molecule: Ac-CLSPEKVC (SEQ ID NO:67) (disulfide 1-8 (inferred); listed as Homo sapiens) [cyclic control peptide, reference compound]
- expression of MBP by western blot [1]: no increase in MBP

Molecule: Biotin-GSGCKHSPLRC (SEQ ID NO:64; cysteine pairing not given here) [reference compound]
- expression of MBP by western blot [1]: no increase in MBP

Molecule: Biotin-GSGCLSPRKHC (SEQ ID NO:63; cysteine pairing not given here)
- expression of MBP by western blot [1]: increased expression of MBP

B1: FL-Sp35: mouse full length Sp35, amino acid residues 34-614 of SEQ ID NO:2, expressed from lentiviral vector (protein, listed as Homo sapiens)
chain: TGCPPRCECSAQDRAVLCHRKRFVAVPEGIPTETRLLDLGKNRIKTLNQDEFASFPHLEELELNENIVSAVEPGAFNNLFNLRTLGLRSNRLKLIPLGVFTGLSNLTKLDISENKIVILLDYMFQDLYNLKSLEVGDNDLVYISHRAFSGLNSLEQLTLEKCNLTSIPTEALSHLHGLIVLRLRHLNINAIRDYSFKRLYRLKVLEISHWPYLDTMTPNCLYGLNLTSLSITHCNLTAVPYLAVRHLVYLRFLNLSYNPISTIEGSMLHELLRLQEIQLVGGQLAVVEPYAFRGLNYLRVLNVSGNQLTTLEESVFHSVGNLETLILDSNPLACDCRLLWVFRRRWRLNFNRQQPTCATPEFVQGKEFKDFPDVLLPNYFTCRRARIRDRKAQQVFVDEGHTVQFVCRADGDPPPAILWLSPRKHLVSAKSNGRLTVFPDGTLEVRYAQVQDNGTYLCIAANAGGNDSMPAHLHVRSYSPDWPHQPNKTFAFISNQPGEGEANSTRATVPFPFDIKTLIIATTMGFISFLGVVLFCLVLLFLWSRGKGNTKHNIEIEYVPRKSDAGISSADAPRKFNMKMI
- decrease in MBP levels [1, 2]: 2 fold
- number of myelinating MBP+ cells compared with controls [1]: decreased the number of myelinating MBP^+ cells twofold
- MBP in cultures by western blot [1]: twofold reduction
- basal levels of myelination in comparison to control (empty vector) ([1]; overexpression in either or both cell types): significantly descreased
- number of mature oligodendrocytes compared with the control (Oligodendrocytes): reduction in the number of mature oligodendrocytes
- Fyn phosphorylation (Fyn kinase): reduced by twofold
- Fyn protein expression (Fyn kinase): reduced by twofold

B2: Sp35-Ig-Fc: Sp35 amino acids 417-493 fused to Fc (protein)
chain: RARIRDRKAQQVFVDEGHTVQFVCRADGDPPPAILWLSPRKHLVSAKSNGRLTVFPDGTLEVRYAQVQDNGTYLCIA
modifications: left off: a dimerising Fc or GST
notes: Sp35 amino acids 417-493 fused to Fc
- expression of MBP by western blot [1]: increased
- increase in MBP protein compared with Sp35-Fc ([1]; western blot, FIG. 15): comparable

B3: DN-Sp35: dominant negative Sp35, amino acid residues 34-581 of SEQ ID NO:2, expressed from lentiviral vector (protein, listed as Homo sapiens)
chain: TGCPPRCECSAQDRAVLCHRKRFVAVPEGIPTETRLLDLGKNRIKTLNQDEFASFPHLEELELNENIVSAVEPGAFNNLFNLRTLGLRSNRLKLIPLGVFTGLSNLTKLDISENKIVILLDYMFQDLYNLKSLEVGDNDLVYISHRAFSGLNSLEQLTLEKCNLTSIPTEALSHLHGLIVLRLRHLNINAIRDYSFKRLYRLKVLEISHWPYLDTMTPNCLYGLNLTSLSITHCNLTAVPYLAVRHLVYLRFLNLSYNPISTIEGSMLHELLRLQEIQLVGGQLAVVEPYAFRGLNYLRVLNVSGNQLTTLEESVFHSVGNLETLILDSNPLACDCRLLWVFRRRWRLNFNRQQPTCATPEFVQGKEFKDFPDVLLPNYFTCRRARIRDRKAQQVFVDEGHTVQFVCRADGDPPPAILWLSPRKHLVSAKSNGRLTVFPDGTLEVRYAQVQDNGTYLCIAANAGGNDSMPAHLHVRSYSPDWPHQPNKTFAFISNQPGEGEANSTRATVPFPFDIKTLIIATTMGFISFLGVVLFCLVLLFLWSRGKG
- increase in MBP levels [1, 2]: 2 fold
- number of myelinating MBP+ cells compared with controls [1]: increased the total number of myelinating MBP^+ cells five- to tenfold
- MBP in cultures by western blot [1]: tenfold increase
- number of mature oligodendrocytes compared with the control (Oligodendrocytes): increase in the number of mature oligodendrocytes
- Fyn phosphorylation (Fyn kinase): twofold increases
- Fyn protein expression (Fyn kinase): twofold increases
